We go through seven molecules from patent publication US20230348616A1 (MIE UNIVERSITY, published 2023).

Changes are numbered by the printed parent chain. Read-outs that look alike come from different tables or passages of the source.

For assay [1], the target named is T1, HLA-A2 / homologous peptide DOLPP1 complex on T2 cells (human).
T1 construct: whole, on cells; also called T2 cells supplemented with homologous peptide DOLPP1
Kind of assay: flow cytometry on peptide-pulsed T2 cells, scFv 100 nM. In general terms: Flow cytometry measures light scatter and fluorescence of single cells or particles in a stream.
Experimental: (§1) The cells were washed 2 times in PBS containing 5% FBS, immobilized with Mildform 10 N (FUJIFILM Wako Pure Chemical Corporation) overnight, and resuspended in PBS containing 5% FBS. The cell suspensions were subjected to detection using a flow cytometer (CantoII, Becton Dickinson). […] The standardized gMFI indicating the binding affinity of each scFv standardized with the amount of the HLA/peptide complex on the T2 cells was determined in accordance with the following equation.
(§2) The 9-mer peptide shown in FIG. 2A was selected as a homologous peptide for evaluation of binding specificity of anti-HLA/NY-ESO scFv. […] The standardized gMFI indicating the binding affinity of each scFv standardized with the amount of the HLA/peptide complex on the T2 cells was determined in accordance with the following equation.

Assay [2] has as its target T2, gp100 (human).
T2 construct: cell surface;cell surface complex; also called HLA-A2 / gp100 peptide complex on T2 cells
Described as above.
Experimental: as §1, §2

Assay [3] deals with T3, HLA-A2 / homologous peptide P2RY8 complex on T2 cells (human).
T3 construct: whole, on cells; also called T2 cells supplemented with homologous peptide P2RY8
Described as above.
Experimental: as §1, §2

In assay [4] the target is T4, HLA-A2 / homologous peptide PRKD2 complex on T2 cells (human).
T4 construct: whole, on cells; also called T2 cells supplemented with homologous peptide PRKD2
The assay is described as above.
Experimental: as §1, §2

Assay [5] deals with T5, HLA-A2 / homologous peptide CD163 complex on T2 cells (human).
T5 construct: whole, on cells; also called T2 cells supplemented with homologous peptide CD163
Described as above.
Experimental: as §1, §2

The target of assay [6] is T6, HLA-A2 / homologous peptide IL20RB complex on T2 cells (human).
T6 construct: whole, on cells; also called T2 cells supplemented with homologous peptide IL20RB
Described as above.
Experimental: as §1, §2

The target of assay [7] is T7, HLA-A2/NY-ESO peptide complex presented on cells (human).
T7 construct: whole, on cells; also called HLA/NY-ESO; T2 cells supplemented with the NY-ESO peptide
Described as above.
Experimental: as §1, §2

Assay [8] has as its target T8, HLA-A*0201/β2-microglobulin/NY-ESO peptide complex (human, biotinylated with E. coli biotin ligase at the added recognition sequence (biotinylated form used in the ELISA)).
T8 construct: also called HLA/NY-ESO; HLA-A2/NY-ESO
Kind of assay: SPR (Biacore T200), scFv captured by anti-His antibody, HLA/NY-ESO as analyte, single cycle kinetics.
Experimental: With the use of Biacore T200, anti-HLA/NY-ESO scFv was captured as a ligand by the immobilized anti-His antibody, and the antigen was assayed as an analyte. As the antigen, HLA/NY-ESO prepared in 1)-1 was used. The anti-His antibody (His Capture kit, GE Healthcare) was immobilized on Sensor Chip CM5 (GE Healthcare) in accordance with the instructions of the kit. The anti-HLA/NY-ESO scFv constructs diluted to 0.5 μg/ml in HBS-EP+ (GE Healthcare) to be evaluated were brought into contact therewith at 10 μl/min for 60 seconds for immobilization. Thereafter, the samples were added to the HLA/NY-ESO analytes diluted to various levels with HBS-EP+ at a flow rate of 30 μl/min for 120 seconds and dissociation was assayed for 600 seconds.

Assay [9] deals with T2, gp100. The assay can be described thus: flow cytometry on peptide-pulsed T2 cells, scFv 100 nM. The source holds these as a separate data set.
Experimental: (§3) The resultant was washed two times in the AIM-V medium containing 20% FBS, the concentration thereof was adjusted to an adequate level with PBS containing 5% FBS, the LIVE/DEAD Fixable Dead Cell Stain Kit (Thermo Fisher Scientific) was added thereto, and the resultant was allowed to stand at 4° C. for 30 minutes. The cells were washed 2 times in PBS containing 5% FBS, the washed cells were divided into two groups, the cells in PBS containing 5% FBS were seeded on a 96-well U-bottom microplate at 10⁵ cells/well, and the plate was subjected to centrifugation, followed by removal of the supernatant. Anti-HLA/NY-ESO scFv diluted to 100 nM with PBS containing 5% FBS was added at 25 μl/well to one of the divided cells, and the resultant was allowed to stand at 4° C. for 30 minutes. The cells were washed 2 times in PBS containing 5% FBS, Penta-His Alexa Fluor488 (QIAGEN) diluted in PBS containing 5% FBS was added at 25 μl/well, and the resultant was allowed to stand at 4° C. for 30 minutes. The cells were washed 2 times in PBS containing 5% FBS, Anti-mouse-IgG Alexa Fluor488 (Thermo Fisher Scientific) diluted in PBS containing 5% FBS was added at 25 μl/well, and the resultant was allowed to stand at 4° C. for 30 minutes. The cells were washed 2 times in PBS containing 5% FBS, immobilized with Mildform 10 N (FUJIFILM Wako Pure Chemical Corporation) overnight, and resuspended in PBS containing 5% FBS. […] The cells were washed 2 times in PBS containing 5% FBS, immobilized with Mildform 10 N (FUJIFILM Wako Pure Chemical Corporation) overnight, and resuspended in PBS containing 5% FBS. The cell suspensions were subjected to detection using a flow cytometer (CantoII, Becton Dickinson). […] The standardized gMFI indicating the binding affinity of each scFv standardized with the amount of the HLA/peptide complex on the T2 cells was determined in accordance with the following equation.
Assay [10] has as its target T7, HLA-A2/NY-ESO peptide complex presented …. The assay is described as above. This is another data set of the same source.
Experimental: as §3
Assay [11] addresses T1, HLA-A2 / homologous peptide DOLPP1 …. The assay can be described thus: flow cytometry, peptide-pulsed T2 cells.
Assay [12] deals with T3, HLA-A2 / homologous peptide P2RY8 …. The assay can be described thus: flow cytometry, peptide-pulsed T2 cells.
For assay [13], the target named is T4, HLA-A2 / homologous peptide PRKD2 …. Kind of assay: flow cytometry, peptide-pulsed T2 cells.
The target of assay [14] is T5, HLA-A2 / homologous peptide CD163 …. The assay can be described thus: flow cytometry, peptide-pulsed T2 cells.
Assay [15] has as its target T6, HLA-A2 / homologous peptide IL20RB …. Kind of assay: flow cytometry, peptide-pulsed T2 cells.

B1: NYA-2060 (scFv)
scFv: GEVQLVESGGGLVQPGGSLRLSCAASGFSIRSYDIHWVRQAPGKGLEWVATISYDGSQKYYADSVKGRFTISRDESKNTLYLQMNSLRAEDTAVYHCARGSSGHYEAFDIWGQGTLVTVSSGGGGSGGGGSGGGGSQSVLTQPPSVSAAPGQKVTISCSGSSSNIGNWYVSWYQQLPGTAPKLLIYDNNKRPSGIPDRFSGSKSGTSATLGITGLQTGDEADYYCGTWDSSLSAPWVFGGGTKVTVLGAAAGAGGDYKDDDDKGAAAHHHHHH
notes: also called NYA-2060 tag adduct
Take B1: the “standardized gMFI” value in assay [1] was found to be 0.42; with gp100 [2] it was 0.32; in [3], 0.62; in assay [4] it was 0.33; in assay [5], 0.47; in assay [6], 0.45. Besides, the “standardized gMFI” value in [7] amounted to 11.2; with gp100 [9] it was 0.41; in assay [10], 8.78. The dissociation constant Kd in assay [8] was determined as 1.1 nM. For the same molecule, the binding result in assay [11], in [12], in assay [13], in [14] and in assay [15] was “no binding (tested: 100 nM)” throughout.

B2: NYA-2047 (scFv)
scFv: B1 scFv with E2Q, L12V, G17R, I35M, E75N, N85S
Take B2: the “standardized gMFI” value in assay [1] turned out to be 0.4; in the assay with gp100 [2], 0.3; in assay [3], 0.72; in assay [4], 0.35; in assay [5] it was 0.47; in assay [6], 0.43. The “standardized gMFI” value in [7] stood at 10.2; in the assay with gp100 [9], 0.39; in assay [10] it was 7.99. Further, the dissociation constant Kd in assay [8] was 5.3 nM. Also, the binding result in assay [11], in assay [12], in assay [13], in [14] and in [15] was “no binding (tested: 100 nM)” throughout.

B3: NYA-2045 (scFv)
scFv: GEVQLVESGGGLVQPGGSLRLSCAASGFSIRSYDIHWVRLAPGKGLEWVATISYDGSQKYYADSVKGRFTISRDESKNTLYLQMNSLRAEDTAVYHCARGSSGHYEAFDIWGQGTLVTVSSGGGGSGGGGSGGGGSQSVLTQPPSASGTPGQRVTISCSGSSSNIGNWYVSWYQQLPGTAPKLLIYDNNKRPSGVPDRFSGSKSGTSASLAISGLQSEDEADYYCGTWDSSLSAPWVFGGGTKLTVLGAAAGAGGDYKDDDDKGAAAHHHHHH
notes: also called NYA-2045 tag adduct
Take B3: the “standardized gMFI” value was 0.43 in assay [1]; 0.3 with gp100 [2]; 0.58 in assay [3]; 0.34 in assay [4]; 0.48 in [5]; 0.47 in [6]. The entries for the “standardized gMFI” value (in [7]; with gp100 [9]; in [10]) were 13.8, 0.39 and 9.03, respectively. This molecule showed a Kd in assay [8] of 0.8 nM. In addition, the binding result in assay [11], in [12], in [13], in assay [14] and in [15] was “no binding (tested: 100 nM)” each time.

B4: NYA-2044 (scFv)
scFv: B1 scFv with Q40L
notes: also called NYA-2044 tag adduct
Regarding B4, the “standardized gMFI” value turned out to be 0.38 in [1]; 0.32 in the assay with gp100 [2]; 0.72 in assay [3]; 0.33 in assay [4]; 0.47 in assay [5]; 0.43 in assay [6]. Moreover, the “standardized gMFI” value worked out at 14.3 in [7], 0.39 in the assay with gp100 [9] and 12.9 in assay [10]. In addition, in assay [8], the Kd turned out to be 0.8 nM. Moreover, the binding result in assay [11], in [12], in [13], in assay [14] and in assay [15] was “no binding (tested: 100 nM)” each time.

B5: NYA-2061 (scFv)
scFv: B3 scFv with L40Q
notes: also called NYA-2061 tag adduct
For B5, the “standardized gMFI” value in assay [1] came to 0.4; in the assay with gp100 [2], 0.32; in [3], 0.57; in assay [4], 0.33; in assay [5], 0.48; in [6], 0.46. Further, the “standardized gMFI” value in assay [7] is 10.4; with gp100 [9], 0.4; in assay [10], 8.62. Further, in [8], the equilibrium dissociation constant (Kd) was 1.5 nM. For the same molecule, the binding result in assay [11], in assay [12], in assay [13], in assay [14] and in [15] was “no binding (tested: 100 nM)” throughout.

B6: NYA-2035 (scFv)
scFv: GEVQLVESGGGVVQPGRSLTPSCSASGFSIRSYDIHWVRLAPGKGLEWVATISYDGSQKYFADSVKGRFTIFRDESENMVYLQMSGLRVEDTAVYHCARGSSGHYEAFDIWGQGTMVTVSSGGGGSGGGGSGGGGSQSVLTQPPSVSAAPGQKVTISCSGSSSNIGNWKVSWYQQLPGTAPKLLIYDNNKRPSGIPDRFSGSKSGTSATLGITGLQTGDEADYYCGTWDSSLSAPWVFGGGTKVTVLGAAAGAGGDYKDDDDKGAAAHHHHHH
With B6, the “standardized gMFI” value in assay [1] is 0.38; with gp100 [2], 0.29; in assay [3], 0.69; in assay [4] it was 0.33; in [5] it was 0.48; in [6] it was 0.41. Further, the “standardized gMFI” value in assay [7] turned out to be 11.1; in the assay with gp100 [9], 0.38; in assay [10], 9.94. For the same molecule, binding in [8] was characterised by a dissociation constant (Kd) of 3.2 nM. Besides, the binding result in assay [11], in [12], in assay [13], in assay [14] and in [15] was “no binding (tested: 100 nM)” throughout.

B7: NYA-2143 (scFv)
scFv: B6 scFv with K169Y, Q175R
Consider B7, for which the “standardized gMFI” value is 0.38 in [1]; 0.31 with gp100 [2]; 0.69 in [3]; 0.32 in assay [4]; 0.46 in [5]; 0.42 in assay [6]. For the same molecule, the “standardized gMFI” value came to 13.5 in assay [7], 0.38 with gp100 [9] and 13.1 in assay [10]. Also, the Kd in assay [8] was found to be 0.9 nM. The binding result in assay [11], in [12], in assay [13], in assay [14] and in assay [15] was “no binding (tested: 100 nM)” each time.

For orientation: Kd means the constant that tells how readily two partners part at equilibrium. Low readings indicate higher affinity, high ones lower affinity.
